B1: Rac GTPase-activating protein 1 (Homo sapiens), Q9H0H5 (parent)
chain: MDTMMLNVRNLFEQLVRRVEILSEGNEVQFIQLAKDFEDFRKKWQRTDHELGKYKDLLMKAETERSALDVKLKHARNQVDVEIKRRQRAEADCEKLERQIQLIREMLMCDTSGSIQLSEEQKSALAFLNRGQPSSSNAGNKRLSTIDESGSILSDISFDKTDESLDWDSSLVKTFKLKKREKRRSTSRQFVDGPPGPVKKTRSIGSAVDQGNESIVAKTTVTVPNDGGPIEAVSTIETVPYWTRSRRKTGTLQPWNSDSTLNSRQLEPRTETDSVGTPQSNGGMRLHDFVSKTVIKPESCVPCGKRIKFGKLSLKCRDCRVVSHPECRDRCPLPCIPTLIGTPVKIGEGMLADFVSQTSPMIPSIVVHCVNEIEQRGLTETGLYRISGCDRTVKELKEKFLRVKTVPLLSKVDDIHAICSLLKDFLRNLKEPLLTFRLNRAFMEAAEITDEDNSIAAMYQAVGELPQANRDTLAFLMIHLQRVAQSPHTKMDVANLAKVFGPTIVAHAVPNPDPVTMLQDIKRQPKVVERLLSLPLEYWSQFMMVEQENIDPLHVIENSNAFSTPQTPDIKVSLLGPVTTPEHQLLKTPSSSSLSQRVRSTLTKNTPRFGSKSKSATNLGRQGNFFASPMLK
B2: Rac GTPase-activating protein 1 (Homo sapiens), Q9H0H5 (parent)
chain: B1 chain
partner: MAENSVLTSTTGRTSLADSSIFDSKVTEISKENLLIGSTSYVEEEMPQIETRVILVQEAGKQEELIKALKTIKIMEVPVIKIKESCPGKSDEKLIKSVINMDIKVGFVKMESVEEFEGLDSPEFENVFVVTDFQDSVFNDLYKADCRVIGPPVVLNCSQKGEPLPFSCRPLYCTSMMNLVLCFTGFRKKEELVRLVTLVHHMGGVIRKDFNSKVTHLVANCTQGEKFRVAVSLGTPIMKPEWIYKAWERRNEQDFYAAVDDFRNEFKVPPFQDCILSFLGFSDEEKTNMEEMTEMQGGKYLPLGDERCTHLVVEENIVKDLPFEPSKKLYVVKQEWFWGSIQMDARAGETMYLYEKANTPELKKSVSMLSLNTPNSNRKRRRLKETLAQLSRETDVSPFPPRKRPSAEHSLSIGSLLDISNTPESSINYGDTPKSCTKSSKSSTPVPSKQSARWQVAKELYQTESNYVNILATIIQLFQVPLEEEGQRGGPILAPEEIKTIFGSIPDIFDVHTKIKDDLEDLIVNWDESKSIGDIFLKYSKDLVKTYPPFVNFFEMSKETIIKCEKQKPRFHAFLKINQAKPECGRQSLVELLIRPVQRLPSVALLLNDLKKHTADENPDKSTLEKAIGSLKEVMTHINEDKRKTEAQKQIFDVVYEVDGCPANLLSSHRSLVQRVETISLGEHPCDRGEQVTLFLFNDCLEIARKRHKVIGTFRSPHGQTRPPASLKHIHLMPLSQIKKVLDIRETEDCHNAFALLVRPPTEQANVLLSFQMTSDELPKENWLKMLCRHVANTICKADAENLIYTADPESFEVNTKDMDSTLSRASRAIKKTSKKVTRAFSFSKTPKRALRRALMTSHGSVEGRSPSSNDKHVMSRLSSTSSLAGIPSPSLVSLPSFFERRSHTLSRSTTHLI

Variants of: B1
Settings: with plk1_human PLK1, P53350
plk1_human PLK1, P53350, sequence (P53350 whole entry): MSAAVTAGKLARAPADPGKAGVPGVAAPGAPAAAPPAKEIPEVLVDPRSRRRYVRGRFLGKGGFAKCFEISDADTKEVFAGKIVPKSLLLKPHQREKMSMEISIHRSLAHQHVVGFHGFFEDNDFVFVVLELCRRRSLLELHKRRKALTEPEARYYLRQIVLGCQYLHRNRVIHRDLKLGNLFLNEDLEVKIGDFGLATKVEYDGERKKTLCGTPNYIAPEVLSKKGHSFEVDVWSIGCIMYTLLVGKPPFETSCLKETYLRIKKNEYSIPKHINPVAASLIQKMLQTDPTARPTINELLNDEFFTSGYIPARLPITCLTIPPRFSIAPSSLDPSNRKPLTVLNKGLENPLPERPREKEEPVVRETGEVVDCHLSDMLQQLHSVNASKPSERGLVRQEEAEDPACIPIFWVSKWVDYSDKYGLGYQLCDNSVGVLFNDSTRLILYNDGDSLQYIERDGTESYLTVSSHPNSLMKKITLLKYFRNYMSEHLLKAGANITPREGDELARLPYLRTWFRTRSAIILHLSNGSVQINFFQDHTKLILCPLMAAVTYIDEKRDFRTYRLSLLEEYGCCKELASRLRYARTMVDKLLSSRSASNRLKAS

Row | Variant | effect of a mutation on the interaction
1 | S157A;S164A;S170A;S214A;T260A | decreasing interaction strength

Variants of: B2
Settings: with ect2_human ECT2, Q9H8V3

Row | Variant | effect of a mutation on the interaction
2 | S157A;S164A;S170A;S214A;T260A | decreasing interaction strength
3 | S157A;S164A;S170A | disrupting interaction
4 | S157A | decreasing interaction

Source: IntAct's records for PubMed 19468302
